Measured values from paper doi:10.1101/154823 (bioRxiv, 2017).

Target: T1, GDF8 growth factor dimer (human, UniProt O14793 267-375, disulfide-linked dimer)
T1 sequence (looked up): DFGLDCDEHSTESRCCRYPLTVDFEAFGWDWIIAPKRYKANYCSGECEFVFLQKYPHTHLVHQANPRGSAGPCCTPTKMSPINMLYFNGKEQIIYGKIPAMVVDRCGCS
Experiment: HDX-MS

B1: N-prodomain fragment of GDF8 (N-terminal 15 kDa TLD-cleaved prodomain fragment) (domain or fragment, human, UniProt O14793 24-98, looked up)
chain: NENSEQKENVEKEGLCNACTWRQNTKSSRIEAIKIQILSKLRLETAPNISKDVIRQLLPKAPPLRELIDQYDVQR
modifications: predicted N-linked glycan attachment site (printed as Asn-71 in the text, Asn48 in Figure 1A)
binding result: binds
